Measurements from patent US20260022175A1 (Chugai, published 2026).
Where a chain is given by its changes, count along the chain named. Names and notes keep the numbering of the source.

T1: human FcγRIIb extracellular domain with C-terminal His-tag (human, UniProt P31994 43-217)
T1 construct: extracellular domain; also called hFcγR IIb
T1 sequence (looked up): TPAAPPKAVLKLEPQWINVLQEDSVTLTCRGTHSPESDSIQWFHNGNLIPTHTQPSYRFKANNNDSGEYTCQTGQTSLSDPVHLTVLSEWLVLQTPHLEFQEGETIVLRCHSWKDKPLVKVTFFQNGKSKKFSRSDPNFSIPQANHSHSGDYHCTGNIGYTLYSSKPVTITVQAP

T2: human FcγRIIa R allotype extracellular domain with C-terminal His-tag (human, UniProt P12318 34-217)
T2 construct: extracellular domain; also called hFcγR IIa R
T2 sequence (looked up): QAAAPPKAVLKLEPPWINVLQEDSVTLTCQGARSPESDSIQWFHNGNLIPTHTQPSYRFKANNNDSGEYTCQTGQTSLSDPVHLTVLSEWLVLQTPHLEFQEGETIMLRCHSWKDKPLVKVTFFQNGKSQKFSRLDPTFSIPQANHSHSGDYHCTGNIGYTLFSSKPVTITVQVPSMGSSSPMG

T3: human FcγRIIa H allotype extracellular domain with C-terminal His-tag (human, UniProt P12318 34-217)
T3 construct: extracellular domain; also called hFcγR IIa H
T3 sequence (looked up): T2 sequence (looked up) with R134H

B1: 04H1077-G1m/04L1034-lam1 (antibody, human IgG1, lambda, V domains shown)
VH: EVQLVESGGDLVKPGGGLRLSCAASGFTFSSRTMNWVRQAPGKGLEWVSSISTRSGYIYYAESVKGRFTISRDNAKNSLYLQMNSLRAEDTAVYYCARYGKREDMLWVFDYWGQGTLVTVSS
VL: QSALTQPPSASGSPGQTVTISCDGPSTDVGDYNWVSWYQQHPGKAPKLMIYFTSKKPSGVPDRFSGSKSGNTASLTVSGLQAEDEADYFCSTYAAPLGPMFGGGTKLTVLG
B2: 04H1389-Km481/04L1615-k0MT//04H1389-Hm498/04L1615-k0MT (antibody)
heavy 1: EVQLVESGGGLVKPGGSLRLSCAASGFTFSSKTMNWVRQAPGKGLEWVSSISTQSHYIYYAESVKGRFTISRDNAKNSLYLQMNSLRAEDTAVYYCARYGKREDMLWVFDYWGQGTLVTVSSASTKGPSVFPLAPSSKSTSGGTAALGCLVKDYFPEPVTVSWNSGALTSGVHTFPAVLQSSGLYSLSSVVTVPSSSLGTQTYICNVNHKPSNTKVDKRVEPKSCDKTHTCPPCPAPEFQWGPMVFLFPPKPKDVLMISRTPEVTCVVVDVSDEEPEVKFNWYVDGVEVHNAKTKPREEQYNATYRVVSVLPVLHQDWLNGKEYKCKVSNDALPAPEEKTISKAKGQPREPQVCTLPPSREEMTKNQVSLWCLVKGFYPSDIAVEWESNGQPENNYKTTPPVLDSDGSFFLYSKLTVDKSRWQQGNVFSCSVMHEALHAHTTRKELSLSP
heavy 2: EVQLVESGGGLVKPGGSLRLSCAASGFTFSSKTMNWVRQAPGKGLEWVSSISTQSHYIYYAESVKGRFTISRDNAKNSLYLQMNSLRAEDTAVYYCARYGKREDMLWVFDYWGQGTLVTVSSASTKGPSVFPLAPSSKSTSGGTAALGCLVKDYFPEPVTVSWNSGALTSGVHTFPAVLQSSGLYSLSSVVTVPSSSLGTQTYICNVNHKPSNTKVDKRVEPKSCDKTHTCPPCPAPELLAGPSVFLFPPKPKDVLMISRTPEVTCVVVDVSHEEPEVKFNWYVDGVEVHNAKTKPREEQYNATYRVVSVLPVLHQDWLNGKEYKCKVSNDALPAPEEETISKAKGQPREPQVYTLPPSRCEMTKNQVSLSCAVKGFYPSDIAVEWESNGQPENNYKTTPPVLDSDGSFFLVSKLTVDKSRWQQGNVFSCSVMHEALHAHTTRKELSLSP
light: DIVMTQSPLSLPVTPGEPASISCQGPSTGVGDYNYVHWYQQKPGQAPRLLIYFTSKKPSGVPDRFSGSGSGTDFTLKISRVEAEDVGVYYCQTYAAPLGPMFGQGTKLEIKRTVAAPSVFIFPPSDEQLKSGTASVVCLLNNFYPREAKVQWKVDNALQSGNSQESVTEQDSKDSTYSLSSTLTLSKADYEKHKVYACEVTHQGLSSPVTKSFNRGEC
notes: Heterodimerized antibody with N434A/Y436T/Q438R/S440E
B3: 04H1389-Ks461/04L1615-k0MT//04H1389-Hs443/04L1615-k0MT (antibody, human IgG1, kappa)
heavy 1: B2 heavy 1 with C354Y, A439N, T441Y, R443Q, E445S
heavy 2: B2 heavy 2 with C361E, A439N, T441Y, R443Q, E445S
light: B2 light
notes: Heterodimerized antibody
B4: 04H1389-Ks473/04L1615-k0MT//04H1389-Hs482/04L1615-k0MT (antibody)
heavy 1: B2 heavy 1 with E337I, C354Y
heavy 2: B2 heavy 2 with A335K, E337D, C361E
light: B2 light
notes: as for B2
B5: 04H1389-Ks462/04L1615-k0MT//04H1389-Hs445/04L1615-k0MT (antibody, human IgG1, kappa)
heavy 1: B2 heavy 1 with E337I, C354Y, A439N, T441Y, R443Q, E445S
heavy 2: B2 heavy 2 with A335K, E337D, C361E, A439N, T441Y, R443Q, E445S
light: B2 light
notes: Heterodimerized antibody
B6: 04H1389-Ks481/04L1615-k0MT//04H1389-Hs498/04L1615-k0MT (antibody)
heavy 1: B2 heavy 1 with C354Y
heavy 2: B2 heavy 2 with C361E
light: B2 light
notes: as for B2

What follows are binders tested against T4, hCTLA4-His-BAP (human CTLA4 extracellular region with C-terminal His-tag and BAP-tag) (human, biotin on the BAP-tag) (assay: SPR 37C, ATP 100 µM; ATP 100 µM).
T4 construct: also called hCTLA4-His-Biotin
T4 sequence (chain, as listed by the source limits assumed): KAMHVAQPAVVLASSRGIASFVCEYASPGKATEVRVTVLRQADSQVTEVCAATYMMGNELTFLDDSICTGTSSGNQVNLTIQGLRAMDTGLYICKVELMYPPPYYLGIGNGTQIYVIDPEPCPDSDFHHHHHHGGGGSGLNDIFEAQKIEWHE

| Kd | Binder |
| --- | --- |
| 320 nM | B1 |

What follows are binders tested against T1, human FcγRIIb extracellular domain with … (assay: SPR; FcγRIIb bound amount per unit captured Ab).

| Binding amount | Binder |
| --- | --- |
| 0.021 | B2 |
| 0.024 | B3 |
| 0.026 | B4 |
| 0.03 | B5 |
| 0.023 | B6 |

These binders were tested against T5, human FcγRIa extracellular domain with C-terminal His-tag (human, UniProt P12314 16-292) (assay: SPR Biacore T200, Ab captured via Fab-kappa, pH 7.4, 25C;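 further: each FcγR flowed as analyte over the captured antibodies, KD derived by 1:1 Langmuir or steady-state affinity fitting depending on the receptor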).
T5 construct: extracellular domain; also called hFcγR Ia; hFcγRIa
T5 sequence (P12314 16-292): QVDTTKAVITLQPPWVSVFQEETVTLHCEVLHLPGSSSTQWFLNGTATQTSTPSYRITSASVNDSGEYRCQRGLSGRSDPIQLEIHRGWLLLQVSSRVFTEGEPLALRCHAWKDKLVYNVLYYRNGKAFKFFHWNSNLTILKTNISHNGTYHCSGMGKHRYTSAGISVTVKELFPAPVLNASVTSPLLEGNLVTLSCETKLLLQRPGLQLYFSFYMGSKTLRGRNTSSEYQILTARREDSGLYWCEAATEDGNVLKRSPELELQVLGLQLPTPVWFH

| Kd | Binder |
| --- | --- |
| 0.042 nM | B2 |
| 0.03 nM | B3 |
| 0.051 nM | B4 |
| 0.047 nM | B5 |
| 0.028 nM | B6 |

Each binder was assayed against T2, human FcγRIIa R allotype extracellular … in the same assay as above.

| Kd | Binder |
| --- | --- |
| 290 nM | B2 |
| 250 nM | B3 |
| 160 nM | B4 |
| 160 nM | B5 |
| 260 nM | B6 |

What follows are binders tested against T3, human FcγRIIa H allotype extracellular … in the same assay as above.

| Kd | Binder |
| --- | --- |
| 210 nM | B2 |
| 160 nM | B3 |
| 75 nM | B4 |
| 67 nM | B5 |
| 190 nM | B6 |

Each binder was assayed against T6, human FcγRIIIa F allotype extracellular domain with C-terminal His-tag (human, UniProt P08637 17-208) in the same assay as above.
T6 construct: extracellular domain; also called hFcγR IIIa F
T6 sequence (P08637 17-208): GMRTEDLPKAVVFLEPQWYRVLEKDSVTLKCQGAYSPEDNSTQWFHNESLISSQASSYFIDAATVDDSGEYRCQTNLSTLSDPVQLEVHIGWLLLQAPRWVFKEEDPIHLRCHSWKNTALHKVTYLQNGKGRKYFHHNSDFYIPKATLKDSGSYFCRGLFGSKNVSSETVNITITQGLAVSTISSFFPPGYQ

| Kd | Binder |
| --- | --- |
| 1.4 nM | B2 |
| 1.2 nM | B3 |
| 2.3 nM | B4 |
| 2.1 nM | B5 |
| 1.3 nM | B6 |

What follows are binders tested against T7, human FcγRIIIa V allotype extracellular domain with C-terminal His-tag (human, UniProt P08637 17-208) in the same assay as above.
T7 construct: extracellular domain; also called hFcγR IIIa V
T7 sequence (P08637 17-208 F176V): as the sequence (P08637 17-208) above, with F160V counted along it

| Kd | Binder |
| --- | --- |
| 0.62 nM | B2 |
| 0.56 nM | B3 |
| 1.2 nM | B4 |
| 1.1 nM | B5 |
| 0.6 nM | B6 |

Each binder was assayed against T8, human FcRn (human, UniProt P55899 24-290; P61769 21-119) (assay: SPR; KD of 04H1389-G1m/04L1615-k0MT divided by KD of variant).
T8 construct: Prepared by the method of WO 2010/107110; also called hFcRn

| Relative value to KD between G1m and hFcRn | Binder |
| --- | --- |
| 2.8 | B2 |
| 0.8 | B3 |
| 2.9 | B4 |
| 0.8 | B5 |
| 2.8 | B6 |

These binders were tested against T5, human FcγRIa extracellular domain with … in the same assay as above.

| Relative value to KD between G1m and hFcγRs | Binder |
| --- | --- |
| 1.1 | B2 |
| 1.5 | B3 |
| 0.9 | B4 |
| 1 | B5 |
| 1.6 | B6 |

These binders were tested against T2, human FcγRIIa R allotype extracellular … in the same assay as above.

| Relative value to KD between G1m and hFcγRs | Binder |
| --- | --- |
| 5.1 | B2 |
| 5.9 | B3 |
| 9 | B4 |
| 9.1 | B5 |
| 5.6 | B6 |

The binders below were run against T3, human FcγRIIa H allotype extracellular … in the same assay as above.

| Relative value to KD between G1m and hFcγRs | Binder |
| --- | --- |
| 5 | B2 |
| 6.7 | B3 |
| 14.1 | B4 |
| 15.8 | B5 |
| 5.6 | B6 |

What follows are binders tested against T7, human FcγRIIIa V allotype extracellular … in the same assay as above.

| Relative value to KD between G1m and hFcγRs | Binder |
| --- | --- |
| 1470 | B2 |
| 1630 | B3 |
| 760 | B4 |
| 830 | B5 |
| 1500 | B6 |

These binders were tested against T1, human FcγRIIb extracellular domain with … (assay: SPR; binding amount divided by that of 04H1389-G1m/04L1615-k0MT).

| Relative binding amount | Binder |
| --- | --- |
| 1.9 | B2 |
| 2.1 | B3 |
| 2.3 | B4 |
| 2.6 | B5 |
| 2 | B6 |

The binders below were run against T8, human FcRn (assay: SPR Biacore T200, Ab captured via Fab-kappa, pH 6.0, steady state).

| Kd | Binder |
| --- | --- |
| 470 nM | B2 |
| 1700 nM | B3 |
| 450 nM | B4 |
| 1600 nM | B5 |
| 460 nM | B6 |

These binders were tested against T4, hCTLA4-His-BAP (human CTLA4 …) (assay: SPR 37C, hCTLA4 1000 nM, no ATP; no ATP; binding amount at 1000 nM hCTLA4).

| Binding to Human CTLA4 | Binder |
| --- | --- |
| 0.004 per unit amount of antibody | B1 |

The binders below were run against T4, hCTLA4-His-BAP (human CTLA4 …) (assay: SPR 37C, hCTLA4 1000 nM, ATP 1 µM; ATP 1 µM; binding amount at 1000 nM hCTLA4).

| Binding to Human CTLA4 | Binder |
| --- | --- |
| 0.007 per unit amount of antibody | B1 |

Each binder was assayed against T4, hCTLA4-His-BAP (human CTLA4 …) (assay: SPR 37C, hCTLA4 1000 nM, ATP 10 µM; ATP 10 µM; binding amount at 1000 nM hCTLA4).

| Binding to Human CTLA4 | Binder |
| --- | --- |
| 0.041 per unit amount of antibody | B1 |

What follows are binders tested against T4, hCTLA4-His-BAP (human CTLA4 …) (assay: SPR 37C, hCTLA4 1000 nM, ATP 100 µM; ATP 100 µM; binding amount at 1000 nM hCTLA4).

| Binding to Human CTLA4 | Binder |
| --- | --- |
| 0.114 per unit amount of antibody | B1 |
